# Reference: patent US20050026833A1, “PSP-94: use for treatment of hypercalcemia and bone metastasis” (priority 2001, published 2005)
# “Also recorded” adds a separate entry of the source.
# B1: PSP-94: prostate secretory protein of 94 amino acids; native human seminal plasma PSP-94 (protein)
# chain: SCYFIPNEGVPGDSTRKCMDLKGNKHPINSEWQTDNCETCTCYETEISCCTLVSTPVGYDKDNCQRIFKKEDCKYIVVEKKDPKKTCSVSEWII
# Tests used:
# Mat Ly Lu-PTHrP tumors = test: TUNEL assay and Hoechst counterstaining of primary tumor sections; format: in vivo, male Copenhagen rats; conditions: vs vehicle; for TUNEL staining of tumor sections: fifteen days
# Method: For TUNEL assay, tissue sections were, for example, dewaxed (e.g., in xylene), (may also be rehydrated by heating at 60° C. followed by washing in xylene) and (further) rehydrated through a graded alcohol series (100%-70%). Tissues were incubated with proteinase K for 30 min at 37° C. fixed, blocked and permeabilized. Apoptotic cells were detected by TUNEL assay in situ cell death detection kit (Roche Molecular Biochemicals, Laval, QC) according to the manufacturer's instruction. Positive TUNEL staining was visualised by fluorescence microscopy. In other experiments following TUNEL assay, tissue sections were counterstained with Hoechst 33258 (Sigma-Aldrich, Canada). Hoechst staining was added to tissues at a final concentration of 24 ug/ml in PBS and incubated for 15 minutes at room temperature. Tissue sections were washed and visualized by fluorescence microscopy using a blue screen (Rabbani, S. A., et al., Int. J.Cancer, 87:276-282, 2000). All results of immunohistochemistry and TUNEL assay were evaluated and interpreted by two independent examiners.
# The degree of DNA fragmentation was also analyzed in vivo using TUNEL assay which can serve as a marker for apoptosis. […] All animals were sacrificed at the end of the study and their primary tumors removed, paraffin embedded, sectioned and processed by TUNEL assay (upper panel of FIG. 14B) as described herein. Following TUNEL assay, they were counterstained with Hoescht reagent (lower panel of FIG. 14B).
# In order to investigate an underlying molecular mechanism of action of PCK3145 in reducing tumor growth, Mat Ly Lu-PTHrP tumors were analyzed using TUNEL assay which can serve as a marker for apoptosis. […] All animals were sacrificed at the end of the study and their primary tumors removed, paraffin embedded, sectioned and processed by TUNEL assay (upper panel) and counterstained with Hoescht reagent (lower panel). Five animals were present in each group and three sections were analyzed for each animal.
# PTHrP = PTHrP immunohistochemistry of skeletal metastasis (vertebrae); format: in vivo, male Copenhagen rats; conditions: 100.0 ug/kg PCK3145, day 10, vs vehicle
# Method: For example, vertebral columns were fixed and decalcified for a period of 3 weeks. Vertebral column samples were dewaxed in xylene, and rehydrated through a graded alcohol series (100%-70%). For determining the level of expression of PTHrP by skeletal metastasis, the sections were incubated in 1% normal goat serum (Vector Laboratories Inc., Burlingame, Calif., USA) for 30 min at room temperature before treatment with the primary antibody (polyclonal antiserum against PTHrP (1-34) from rabbit) at 1: 200 dilution overnight at 4° C. Biotinylated goat anti-rabbit IgG (Vector Laboratories Inc., Burlingame, Calif., USA) was used as the secondary antibody at 1:200 for 30 min at room temperature. […]
# Computer-Assisted Image Analysis. Computer-assisted image analysis was carried out to quantify PTHrP immunostaining and determination of % TV/BV in the vertebral sections. […] The threshold was set by determining the positive staining of control sections and was used to automatically analyze all recorded images of all samples that were stained in the same session under identical conditions. The area of stained regions was calculated automatically by the software in each microscopic field. Pixel counts of the immunoreaction product were calculated automatically and were given as total density of the integrated immunostaining over a given area. […]
# Mat Ly Lu-PTHrP cells = test: DNA fragmentation in vitro (agarose gel); format: cell-based, rat; conditions: PSP-94 10.0 ug/ml, after 72 hours of treatment
# Method: In order to investigate the underlying molecular mechanism of action of PSP-94 in reducing tumor growth Mat Ly Lu-PTHrP cells were cultured in the presence of PSP-94 (10.0 ug/ml) or vehicle alone for different time intervals. Genomic DNA was collected from cells cultured in the presence of vehicle alone or PSP-94. Briefly, for DNA fragmentation, Mat Ly Lu-PTHRP cells were plated in 6 well plates (Falcon Plastics, Oxnard, Calif.). Cells were treated with PSP-94 (10.0 ug/ml) for up to 72 hours. DNA from treated cells incubated with PSP-94 and cells treated with vehicle alone was collected using a Phenol:Choloroform:lsoamyl alcohol solution (50:48:2). Equal amounts of DNA were subjected to gel electrophoresis on a 2% agarose gel. DNA fragmentation was visualised by UV light using a transilluminator. More particularly, results presented in FIG. 14A show Mat Ly Lu-PTHrP cells cultured in the presence of vehicle alone or PSP-94 (10.0 ug/ml) for up to […]. DNA was isolated and run in an agarose gel, as described above.
Molecule,"Hoechst counterstaining of tumor sections (Mat Ly Lu-PTHrP tumors; Example 9, PCK3145 study)",TUNEL staining of tumor sections (Mat Ly Lu-PTHrP tumors; PCK3145 100.0 ug/kg/day),PTHrP staining in Mat Ly Lu-PTHrP cells of the vertebral column (total density) (PTHrP),DNA fragmentation (Mat Ly Lu-PTHrP cells),TUNEL staining of tumor sections (Mat Ly Lu-PTHrP tumors; PSP-94 10.0 ug/kg/day),Hoechst counterstaining of tumor sections (Mat Ly Lu-PTHrP tumors; PSP-94 treated animals)
E W Q T D N C E T C T C Y E T (EWQTDNCETCTCYET; PCK3145 (polypeptide 31-45)),presence of apoptotic bodies,significantly more TUNEL positive,significantly lower,–,–,–
B1,condensed chromatin,–,–,marked DNA fragmentation,significantly more TUNEL positive,presence of apoptotic bodies; also recorded: condensed chromatin
